Test results as given in PMC3246092 (Gene, 2011).

T1: Rrn7p subunit of recombinant core factor, N-terminal 6-his (S. cerevisiae, UniProt P40992 1-514)
T1 sequence (looked up): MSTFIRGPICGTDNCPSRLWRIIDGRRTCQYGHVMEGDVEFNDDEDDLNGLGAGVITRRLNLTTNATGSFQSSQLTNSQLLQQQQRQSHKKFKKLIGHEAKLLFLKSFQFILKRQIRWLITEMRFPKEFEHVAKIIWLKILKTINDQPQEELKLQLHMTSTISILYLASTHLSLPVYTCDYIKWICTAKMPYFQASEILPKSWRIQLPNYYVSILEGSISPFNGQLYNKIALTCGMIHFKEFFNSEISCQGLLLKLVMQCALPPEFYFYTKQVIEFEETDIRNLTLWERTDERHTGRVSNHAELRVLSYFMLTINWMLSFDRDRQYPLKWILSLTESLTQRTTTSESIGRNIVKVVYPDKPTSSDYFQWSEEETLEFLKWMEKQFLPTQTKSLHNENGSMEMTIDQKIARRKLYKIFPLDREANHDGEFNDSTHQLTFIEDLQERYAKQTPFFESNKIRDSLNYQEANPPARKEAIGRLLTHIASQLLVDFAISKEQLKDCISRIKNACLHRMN

B1: Rrn11p subunit of recombinant core factor, N-terminal 6-his (natural protein, S. cerevisiae, UniProt Q04712 1-507, looked up)
chain: MFEVPITLTNRKFAQRRKLKYQYINYISRRFDRISKKSTTTDSLPTPENSAAENNDEEEGQNSEAGTYRRSVLQQKKRRRERHWRSVVGEIYSTTESETDSQEEETEEGGEHDTGIDKEDSDEERKFWKKYEKPEKSFEIWRTVSSQNKQPINKQKMTYHNFKKIEKIPLRKMEIPLLHCTKENKLYFQSISRGLEPLKTSTSEVRNYRTRHIVTLTDLLHLNVSRHNWSLAYKIFATLIRIPGVQIKSLWGIGVEILDNLSNSSSGLDFLQWMCQIYSSKSRFVQNINYRSIVPPFQTGSRTHTAKFAITYLWSSLINCQKSMEPSSNIIDKPFDTENDLLQELIDKISEWVLTPPFMEDAEVWFIYASCHLLKADTLSRQFVNDNKNNDLIGLDRDIKINQVIKHIHYVRTFLKICLDKGGFAVPSRLIENQLKSFESRLYGEAQDIQERDVANVYDSIDNSSVENSFGDVYETNAEFLDTQLMDLSPEDNGLDEMHYSDEDSSE

Columns and labels:
[1] = molecular target: T1, Rrn7p subunit of recombinant core …; test: quantification of Sypro Ruby stained SDS-PAGE bands of the purified complex
[2] = molecular target: B1; test: as above

Binder | stoichiometry N [1] | stoichiometry N [2]
Rrn6p subunit of recombinant core factor (natural protein, S. cerevisiae, UniProt P32786 1-894, looked up) MSEGQIPSSDVLGSQLGVGVQGASLYCPQENYTTKKQEKPQWLRPVDDTLAEDALDLHIVVKSLLCDTAIRYISDDKVLQESDADDDLITSDIDEDTDNQGDTSIVVNPVIPVVPKDVHFFKKVDVGNDSMFGVNCDTPVSFQDYIPSDLLRNLDDTLQESTNSSRPMQDAFFWDPTVANRLDSQYIQTASDLRNYRDGTEIIAYASGKTGSVLNIAVLTRQNTLHLNRHNNVTSIELHSPIKSIKIPGASESIGRRSNLVGIITENSFQIFRIESVHSRSCDVMVSSSEPLYFVEIDDLQVVDFAFNPWDLQQFAIIDIKGNWSIGRIPKNFNNNNKRKLQLIDNLHGTIFDPEELSSWKRIEWFSHFQKILVFDRSKMIEIDFMNNWQTEVVQAKAWSNIRDYKRIDDKNGILLTSREIIIVGASESNDPVRRISWKHDLDPDDTTLRITVQKVKKPDHILLVAFVYSMRHKRIYMHVFSHRKANLFQSLGCSTVLEIPGGTPTGIETILTLDHIDDESRREEDADENFELVVDFLVKLRNSSEVYYYALSNTQNSEPNKQETPIIVDHPEWASLFNNADEREKESIGALVSQIKLKERERISRVQNLIEHENSHDEDKYLQDLGYRLSIATNELLESWQKTKDESILSGSLSHSKLKNLLENSDSFASIPEFSSLLDQFFQYYQDQDVTFIGFEKLLHLFLHEDVPGLDIFYNKLLQCWVLVSPQAELLTKEIVKDIIWSLARLEKPSLFEPIQNEISRSLSGPYQDIISSWDMDDINEEDESNEFNFDSQFSAPFNGRPPFNLNSQSQIPTIKSSQSSGLARRKRILKTQSQKATPLSQSTQNLSVLPDSMTPAFTLMQPPSSQISFVNDSQPRNSQKAKKKKKRIRGFG | 1 | 1
B1 | 1 | 
